This is an account of results in patent publication US20200392228A1 (PANDION OPERATIONS, published 2020).

To fix the notation:
B1: MAdCAM antibody Clone ID 63 of Table 6 (scFv) (scFv)
scFv: EVQLLESGGGLVKPGGSLRLSCAASGFTFDDYAMHWVRQAPGKGLEWVASITSSSAFIDYAASVKGRFTISRDDSKNTLYLQMNSLKTEDTAVYYCARERVDWNSYFDLWGRGTLVTVSSGGGGSGGGGSGGGGSGGGGSEIVMTQSPATLSVSPGERATLSCRASQGISNSYLAWYQQKPGQAPRLLIYGASTRATGIPARFSGSGSGTEFTLTISSLQSEDFAVYYCQQYYTYPPTFGPGTKVDIK
B2: MAdCAM antibody Clone ID 20 of Table 6 (scFv) (scFv)
scFv: EVQLLESGGGLVQPGGSLRLSCAASGFTFDDYAMHWVRQAPGKGLEWVSYIDTSSSHLYYADSVKGRFTISRDNSKNTLYLQMNSLRAEDTAVYYCARDEAAAGYYGMDVWGQGTTVTVSSGGGGSGGGGSGGGGSGGGGSDIQMTQSPSSLSASVGDRVTITCQAGQDISNYLNWYQQKPGKAPKLLIYDASNLETGVPSRFSGSGSGTDFTLTISSLQPEDFATYYCQQTYSTPITFGQGTKLEIK
B3: MAdCAM antibody Clone ID 7 of Table 6 (scFv) (scFv)
scFv: QVQLVQSGAEVKKPGASVKVSCKASGYTFTGYHIHWVRQAPGQGLEWMGIINPSGGSTIYAQKFQGRVTMTRDTSTSTVYMELSSLRSEDTAVYYCAKDWSSWYLGPFDYWGQGTLVTVSSGGGGSGGGGSGGGGSGGGGSDIQMTQSPSSLSASVGDRVTITCRASQNISSSLNWYQQKPGKAPKLLIYAASSLQSGVPSRFSGSGSGTDFTLTISSLQPEDFATYYCQQSYTTPYTFGQGTKVEIK
B4: MAdCAM antibody Clone ID 59 of Table 6 (scFv) (scFv)
scFv: EVQLLESGGGLVQPGGSLRLSCAASGFTFSDFWMHWVRQAPGKGLEWISYISGDSGYTNYADSVKGRFTISRDNSKNTLYLQMNSLRAEDTAVYYCARDRPYYYYMDVWGKGTTVTVSSGGGGSGGGGSGGGGSGGGGSDIQMTQSPSSLSASVGDRVTITCRASQSVSRSLAWYQQKPGKAPKLLIYAASSLQSGVPSRFSGSGSGTDFTLTISSLQPEDFATYYCQQYKSYPVTFGQGTKVEIK
B5: MAdCAM antibody Clone ID 2 of Table 6 (scFv) (scFv)
scFv: QVQLVQSGAEVKKPGASVKVSCKASGYPFIGYYLHWVRQAPGQGLEWMGIINPSGGSTSYAQKFQGRVTMTRDTSTSTVYMELSSLRSEDTAVYYCAREGRLSYGMDAWGQGTLVTVSSGGGGSGGGGSGGGGSGGGGSDIQMTQSPSSLSASVGDRVTITCRASQSISSYLAWYQQKPGKAPKLLIYGASTLESGVPSRFSGSGSGTDFTLTISSLQPEDFATYYCQQTWGPPFTFGQGTKLEIK
B6: MAdCAM antibody Clone ID 19 of Table 6 (scFv) (scFv)
scFv: EVQLLESGGGLVQPGGSLRLSCAASGFTFDDYAMHWVRQAPGKGLEWVSGISWNSGSIGYADSVKGRFTISRDNSKNTLYLQMNSLRAEDTAVYYCAKDIVAAGHYYYGMDVWGQGTTVTVSSGGGGSGGGGSGGGGSGGGGSDIQMTQSPSSLSASVGDRVTITCQASQDISNYLNWYQQKPGKAPKLLIYDASNLETGVPSRFSGSGSGTDFTLTISSLQPEDFATYYCQQSYSTPLTFGGGTKVEIK
B7: MAdCAM antibody Clone ID 23 of Table 6 (scFv) (scFv)
scFv: EVQLLESGGGLVQPGGSLRLSCAASGFTFSSYAMHWVRQAPGKGLEWVSGISGSGGSAYYADSVKGRFTISRDNSKNTLYLQMNSLRAEDTAVYYCATSQAPVDYYYYGMDVWGQGTTVTVSSGGGGSGGGGSGGGGSGGGGSDIQMTQSPSSLSASVGDRVTITCRASQSISSWLAWYQQKPGKAPKLLIYAASNLQRGVPSRFSGSGSGTDFTLTISSLQPEDFATYYCQQSYSIPITFGQGTKVEIK
B8: MAdCAM antibody Clone ID 9 of Table 6 (scFv) (scFv)
scFv: EVQLLESGGGLVQPGGSLRLSCAASGFTFSDYYMNWVRQAPGKGLEWVSVIGESGGSTYYADSVKGRFTISRDNSKNTLYLQMNSLRAEDTAVYYCAADPVSRWPKHGGGDYWGQGTLVTVSSGGGGSGGGGSGGGGSGGGGSDIQMTQSPSSLSASVGDRVTITCRASQGISSSLAWYQQKPGKAPKLLIYAASTLQSGVPSRFSGSGSGTDFTLTISSLQPEDFATYYCQQSYSTPWTFGQGTKVEIK
B9: MAdCAM antibody Clone ID 5 of Table 6 (scFv) (scFv)
scFv: EVQLLESGGGLVQPGGSLRLSCAASGFTFSSYWMHWVRQAPGKGLEWVSSISPGGSNIDYADSVKGRFTISRDNSKNTLYLQMNSLRAEDTAVYYCAREVQLSHYDYWGQGTLVTVSSGGGGSGGGGSGGGGSGGGGSDIQMTQSPSSLSASVGDRVTITCRASQGISNSLAWYQQKPGKAPKLLIYGASSLQSGVPSRFSGSGSGTDFTLTISSLQPEDFATYYCQQANSFPFTFGQGTKVEIK
B10: MAdCAM antibody Clone ID 6 of Table 6 (scFv) (scFv)
scFv: EVQLLESGGGLVQPGGSLRLSCAASGFTFNNYAFHWVRQAPGKGLEWVSRINSYGTSTTYADSVKGRFTISRDNSKNTLYLQMNSLRAEDTAVYYCAREGPVAGYWYFDLWGQGTLVTVSSGGGGSGGGGSGGGGSGGGGSDIQMTQSPSSLSASVGDRVTITCRASQIIGTNLAWYQQKPGKAPKLLIYGASSLQSGVPSRFSGSGSGTDFTLTISSLQPEDFATYYCQQSYRLPFTFGQGTKVEIK
notes: also called Antibody Clone 6
B11: MAdCAM antibody Clone ID 4 of Table 6 (scFv) (scFv)
scFv: QVQLVQSGAEVKKPGASVKVSCKASGGTFSSYAISWVRQAPGQGLEWMGSINPSGDTTSYAQKFQGRVTMTRDTSTSTVYMELSSLRSEDTAVYYCAKDKAQWLVGYFDYWGQGTLVTVSSGGGGSGGGGSGGGGSGGGGSDIQMTQSPSSLSASVGDRVTITCQASQDISNSLNWYQQKPGKAPKLLIYAASSLQSGVPSRFSGSGSGTDFTLTISSLQPEDFATYYCQQSYSSVITFGQGTKVEIK

The target in the first experiment is T1, human MAdCAM protein (human, UniProt Q13477 19-317).
T1 construct: used for Octet, SPR, ELISA and plate capture; construct not described; also called recombinant human MAdCAM; soluble monomeric human MAdCAM
T1 sequence (looked up): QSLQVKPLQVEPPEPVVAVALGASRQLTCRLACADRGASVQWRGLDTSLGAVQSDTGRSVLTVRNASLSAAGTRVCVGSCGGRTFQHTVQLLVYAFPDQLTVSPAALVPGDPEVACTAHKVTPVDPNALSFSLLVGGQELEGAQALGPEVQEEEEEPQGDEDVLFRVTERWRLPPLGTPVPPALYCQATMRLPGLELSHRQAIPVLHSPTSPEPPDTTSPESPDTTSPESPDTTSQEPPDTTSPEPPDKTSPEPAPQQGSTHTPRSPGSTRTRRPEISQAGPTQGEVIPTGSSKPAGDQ
As to the kind of experiment: Octet.
Take B1: the binding result was “binds”.
B2: the binding result is on record as “binds”.
Still for that read-out and setting: as for B3, the entry is “binds”; as for B4, “binds”.
Same read-out and setting: as for B5, the entry is “binds”.
Take B6: the binding result is reported as “binds”.
The same measure, in the same setting: as for B7, the entry is “binds”; as for B8, “binds”; as for B9, “binds”.
Regarding B10, the binding result is “binds”.
With B11, the binding result is “binds”.

The next experiment has as its target T2, mouse MAdCAM protein (mouse, UniProt Q61826 22-365, limits assumed).
T2 construct: also called recombinant mouse MAdCAM-1; mMAdCAM-1
T2 sequence (looked up): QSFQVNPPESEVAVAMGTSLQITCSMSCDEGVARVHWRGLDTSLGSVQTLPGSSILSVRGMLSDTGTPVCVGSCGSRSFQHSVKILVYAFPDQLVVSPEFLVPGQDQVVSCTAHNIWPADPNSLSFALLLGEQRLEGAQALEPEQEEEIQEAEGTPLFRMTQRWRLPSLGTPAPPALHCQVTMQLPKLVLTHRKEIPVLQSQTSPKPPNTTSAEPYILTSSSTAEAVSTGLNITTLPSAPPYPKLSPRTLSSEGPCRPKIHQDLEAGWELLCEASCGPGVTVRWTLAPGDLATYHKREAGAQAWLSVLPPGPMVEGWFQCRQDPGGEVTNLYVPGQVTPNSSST
As to the kind of experiment: Octet. On the technique in general: In BLI a coated tip is dipped into the sample, and binding shifts an interference pattern.
Take B1: the binding result is listed as “binds”.
With B2, the binding result is given as “no binding”.
With B3, the binding result is reported as “binds”.
On the same count and under the same terms, to B4 belongs “binds”; to B5, “binds”; to B6, “no binding”.
As to B7, the binding result was “no binding”.
For the molecule B8, the binding result is “binds”.
Still for that read-out and setting: as for B9, the entry is “binds”.
Same read-out and setting: as for B10, the entry is “no binding”; as for B11, “binds”.

The next experiment addresses T3, human MAdCAM expressed on cells (human, UniProt Q13477 19-382).
T3 construct: whole, on cells; also called MADCAM1
T3 sequence (looked up): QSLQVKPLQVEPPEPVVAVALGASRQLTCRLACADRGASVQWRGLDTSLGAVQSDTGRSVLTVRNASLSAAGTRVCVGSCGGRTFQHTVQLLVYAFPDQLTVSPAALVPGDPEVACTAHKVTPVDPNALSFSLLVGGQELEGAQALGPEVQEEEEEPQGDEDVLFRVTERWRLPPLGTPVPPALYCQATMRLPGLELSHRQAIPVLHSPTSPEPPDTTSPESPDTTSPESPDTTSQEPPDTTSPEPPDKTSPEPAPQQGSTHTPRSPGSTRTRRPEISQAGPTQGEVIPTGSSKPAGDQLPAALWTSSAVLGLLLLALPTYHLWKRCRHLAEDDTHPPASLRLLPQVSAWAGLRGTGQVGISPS
As to the kind of experiment: cell binding.
In the case of B1, the binding result is given as “binds”.
In the case of B2, the binding result is given as “binds”.
Consider B3, for which the binding result is “binds”.
Regarding B4, the binding result is listed as “binds”.
Take B5: the binding result was “binds”.
As for B6, the binding result is “binds”.
Regarding B7, the binding result is reported as “binds”.
B8: the binding result is “binds”.
The same measure, in the same setting: to B9 belongs “binds”.
Take B10: the binding result is given as “binds”.
B11: the binding result is given as “binds”.

The next experiment has as its target T4, mouse MAdCAM expressed on cells (mouse, UniProt Q61826 22-405).
T4 construct: whole, on cells
T4 sequence (looked up): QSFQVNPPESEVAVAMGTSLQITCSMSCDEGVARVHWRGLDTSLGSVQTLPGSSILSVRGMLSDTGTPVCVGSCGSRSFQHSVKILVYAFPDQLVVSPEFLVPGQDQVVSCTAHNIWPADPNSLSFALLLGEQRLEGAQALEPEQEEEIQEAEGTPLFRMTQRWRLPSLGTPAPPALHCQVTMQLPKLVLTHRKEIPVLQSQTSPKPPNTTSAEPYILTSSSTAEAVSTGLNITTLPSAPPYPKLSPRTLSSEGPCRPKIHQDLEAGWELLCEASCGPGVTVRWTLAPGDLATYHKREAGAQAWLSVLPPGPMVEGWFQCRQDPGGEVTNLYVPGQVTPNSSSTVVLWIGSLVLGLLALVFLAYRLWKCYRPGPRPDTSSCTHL
As to the kind of experiment: cell binding.
Regarding B1, the binding result is recorded as “binds”.
Same read-out and setting: to B2 belongs “no binding”.
B3: the binding result was “binds”.
Turning to B4, the binding result is on record as “binds”.
As for B5, the binding result is given as “binds”.
For B6, the binding result was “no binding”.
Turning to B7, the binding result was “no binding”.
Still for that read-out and setting: to B8 belongs “binds”; to B9, “binds”; to B10, “no binding”.
Still for that read-out and setting: as for B11, the entry is “binds”.
